Results on 2 molecules are retold here after article doi:10.1101/2025.10.03.680245 (bioRxiv, 2025).

For series [1], the target named is GFP-tagged Cdc11-capped recombinant septin octamers (budding yeast (S. cerevisiae), UniProt P32458;P32468;P32457;P25342). Briefly: fluorescence microscopy of purified proteins in solution.
Series [2] concerns the molecule itself. Description: negative-stain transmission electron microscopy.

B1: MBP-Bud4ΔN-HALO (domain or fragment)
chain: MKPSDYISIWHIQEEEIKSNSPESIANSQFSQQSSITTASTVDSKKDNGSTSFKFKPRIVSRSRIYNPKSRVSSLNYYDNEDYILSNSEWNALDPMRRNTLISKRIQDNIRTQKGHAPLIRPSIMKLNGEDSGFQNHFLEVEQPQEHENIPLSTHLSEQDITTNVGLDEQKLPTNTQDEAEISIREIESAGDITFNRGDLLSLSFDEELGQDFANFLDALDHDSTSFNHGPDDSSSFQRDSSKKSFNSLWESSYELKPPPSIRKQPIAPDVLQKLLESDTKDDADLEKIREERITEPRTGLGIGMLKTPVKDVSIALAASIKGYEASFSDTDSRPEGMNNSDAITLNMFDDFEEDKMTPSTPVRSISPIKRHVSSPFKVVKAGNKQENNEINIKAEEEIEPMTQQETDGLKQDIPPLLAQTKDNVEAKEETITQLEEPQDVEQEFPDMGTLYLSIKAISTLALYGTKSHRATYAIVFDNGENVVQTPWESLPYDGNIRINKEFELPIDFKGKAETSSASSERDSYKKCVITLKCKYEKPRHELVEIVDKVPVGKSFFGKTKYKFEKKYVQKKPKQDEWDYLFAQDGSFARCEIEINEEFLKNVAFNTSHMHYNMINKWSRIADKIHGSKRLYELPRKAPHKVASLDVEACFLERTSAFEQFPKQFSLVNKIVSKYKLQQNIYKEGYLLQDGGDLKGKIENRFFKLHGSQLSGYHEISRKAKIDINLLKVTKVLRNEDIQADNGGQRNFTDWVLFNECFQLVFDDGERITFNAECSNEEKSDWYNKLQEVVELNVFHQPWVKKYCEKLAEEEKTRTTGHNLKQDFN
modifications: HaloTag Alexa-Fluor 660 fluorescent ligand on the HALO tag
Regarding B1, the binding result in series [1] is “binds”.

B2: Recombinant Cdc11-capped septin octamers (complex)
chain 1: MSGIIDASSALRKRKHLKRGITFTVMIVGQSGSGRSTFINTLCGQQVVDTSTTILLPTDTSTEIDLQLREETVELEDDEGVKIQLNIIDTPGFGDSLDNSPSFEIISDYIRHQYDEILLEESRVRRNPRFKDGRVHCCLYLINPTGHGLKEIDVEFIRQLGSLVNIIPVISKSDSLTRDELKLNKKLIMEDIDRWNLPIYNFPFDEDEISDEDYETNMYLRTLLPFAIIGSNEVYEMGGDVGTIRGRKYPWGILDVEDSSISDFVILRNALLISHLHDLKNYTHEILYERYRTEALSGESVAAESIRPNLTKLNGSSSSSTTTRRNTNPFKQSNNINNDVLNPASDMHGQSTGENNETYMTREEQIRLEEERLKAFEERVQQELLLKRQELLQREKELREIEARLEKEAKIKQEE
chain 2: MSAATATAAPVPPPVGISNLPNQRYKIVNEEGGTFTVMLCGESGLGKTTFINTLFQTVLKRADGQQHRQEPIRKTVEIDITRALLEEKHFELRVNVIDTPGFGDNVNNNKAWQPLVDFIDDQHDSYMRQEQQPYRTKKFDLRVHAVLYFIRPTGHGLKPIDIETMKRLSTRANLIPVIAKADTLTAQELQQFKSRIRQVIEAQEIRIFTPPLDADSKEDAKSGSNPDSAAVEHARQLIEAMPFAIVGSEKKFDNGQGTQVVARKYPWGLVEIENDSHCDFRKLRALLLRTYLLDLISTTQEMHYETYRRLRLEGHENTGEGNEDFTLPAIAPARKLSHNPRYKEEENALKKYFTDQVKAEEQRFRQWEQNIVNERIRLNGDLEEIQGKVKKLEEQVKSLQVKKSHLK
chain 3: MSLKEEQVSIKQDPEQEERQHDQFNDVQIKQESQDHDGVDSQYTNGTQNDDSERFEAAESDVKVEPGLGMGITSSQSEKGQVLPDQPEIKFIRRQINGYVGFANLPKQWHRRSIKNGFSFNLLCVGPDGIGKTTLMKTLFNNDDIEANLVKDYEEELANDQEEEEGQGEGHENQSQEQRHKVKIKSYESVIEENGVKLNLNVIDTEGFGDFLNNDQKSWDPIIKEIDSRFDQYLDAENKINRHSINDKRIHACLYFIEPTGHYLKPLDLKFMQSVYEKCNLIPVIAKSDILTDEEILSFKKTIMNQLIQSNIELFKPPIYSNDDAENSHLSERLFSSLPYAVIGSNDIVENYSGNQVRGRSYPWGVIEVDNDNHSDFNLLKNLLIKQFMEELKERTSKILYENYRSSKLAKLGIKQDNSVFKEFDPISKQQEEKTLHEAKLAKLEIEMKTVFQQKVSEKEKKLQKSETELFARHKEMKEKLTKQLKALEDKKKQLELSINSASPNVNHSPVPTKKKGFLR
chain 4: MDPLSSVQPASYVGFDTITNQIEHRLLKKGFQFNIMVVGQSGLGKSTLINTLFASHLIDSATGDDISALPVTKTTEMKISTHTLVEDRVRLNINVIDTPGFGDFIDNSKAWEPIVKYIKEQHSQYLRKELTAQRERFITDTRVHAILYFLQPNGKELSRLDVEALKRLTEIANVIPVIGKSDTLTLDERTEFRELIQNEFEKYNFKIYPYDSEELTDEELELNRSVRSIIPFAVVGSENEIEINGETFRGRKTRWSAINVEDINQCDFVYLREFLIRTHLQDLIETTSYIHYEGFRARQLIALKENANSRSSAHMSSNAIQR
Take B2: the binding result in series [2] is given as “binds”.
